Measured values: patent US20230357348A1 (AstraZeneca / MedImmune, published 2023)
Starred links: 1 amine or outer side, 2 acyl side, 3 side chain; linkers in the order of their positions; H or OH if unused. Non-standard residues stand in square brackets, D forms with d. Groups on a side chain read outwards from the residue. No end group written: not given here. *: point of attachment. C18 diacid = O=C(O)CCCCCCCCCCCCCCCCC(=O)*; γGlu = O=C(O)[C@H](CCC(=O)[*:2])N[*:1]; αMeF = C[C@](N)(Cc1ccccc1)C(=O)O; AEEA = NCCOCCOCC(=O)O; Aib = CC(C)(N)C(=O)O

B1: Peptide 141 (peptide)
peptide: H[Aib]QGTFTSDVSK[αMeF]LDSK([AEEA-AEEA-γGlu-C18 diacid])RAQDFVAWLLE[Aib]G-OH
modifications: N-terminus assumed
SMILES: CC(C)C[C@H](NC(=O)[C@H](Cc1c[nH]c2ccccc12)NC(=O)[C@H](C)NC(=O)[C@@H](NC(=O)[C@H](Cc1ccccc1)NC(=O)[C@H](CC(=O)O)NC(=O)[C@H](CCC(N)=O)NC(=O)[C@H](C)NC(=O)[C@H](CCCNC(=N)N)NC(=O)[C@H](CCCCNC(=O)COCCOCCNC(=O)COCCOCCNC(=O)CC[C@H](NC(=O)CCCCCCCCCCCCCCCCC(=O)O)C(=O)O)NC(=O)[C@H](CO)NC(=O)[C@H](CC(=O)O)NC(=O)[C@H](CC(C)C)NC(=O)[C@](C)(Cc1ccccc1)NC(=O)[C@H](CCCCN)NC(=O)[C@H](CO)NC(=O)[C@@H](NC(=O)[C@H](CC(=O)O)NC(=O)[C@H](CO)NC(=O)[C@@H](NC(=O)[C@H](Cc1ccccc1)NC(=O)[C@@H](NC(=O)CNC(=O)[C@H](CCC(N)=O)NC(=O)C(C)(C)NC(=O)[C@@H](N)Cc1c[nH]cn1)[C@@H](C)O)[C@@H](C)O)C(C)C)C(C)C)C(=O)N[C@@H](CC(C)C)C(=O)N[C@@H](CCC(=O)O)C(=O)NC(C)(C)C(=O)NCC(=O)O
B2: Peptide 142 (peptide)
peptide: H[Aib]QGTFTSDVSK[αMeF]LDSK([AEEA-AEEA-γGlu-C18 diacid])RARDFVAWLLE[Aib]G-OH
modifications: N-terminus assumed
SMILES: CC(C)C[C@H](NC(=O)[C@H](Cc1c[nH]c2ccccc12)NC(=O)[C@H](C)NC(=O)[C@@H](NC(=O)[C@H](Cc1ccccc1)NC(=O)[C@H](CC(=O)O)NC(=O)[C@H](CCCNC(=N)N)NC(=O)[C@H](C)NC(=O)[C@H](CCCNC(=N)N)NC(=O)[C@H](CCCCNC(=O)COCCOCCNC(=O)COCCOCCNC(=O)CC[C@H](NC(=O)CCCCCCCCCCCCCCCCC(=O)O)C(=O)O)NC(=O)[C@H](CO)NC(=O)[C@H](CC(=O)O)NC(=O)[C@H](CC(C)C)NC(=O)[C@](C)(Cc1ccccc1)NC(=O)[C@H](CCCCN)NC(=O)[C@H](CO)NC(=O)[C@@H](NC(=O)[C@H](CC(=O)O)NC(=O)[C@H](CO)NC(=O)[C@@H](NC(=O)[C@H](Cc1ccccc1)NC(=O)[C@@H](NC(=O)CNC(=O)[C@H](CCC(N)=O)NC(=O)C(C)(C)NC(=O)[C@@H](N)Cc1c[nH]cn1)[C@@H](C)O)[C@@H](C)O)C(C)C)C(C)C)C(=O)N[C@@H](CC(C)C)C(=O)N[C@@H](CCC(=O)O)C(=O)NC(C)(C)C(=O)NCC(=O)O
B3: Peptide 143 (peptide)
peptide: H[Aib]QGTFTSDVSK[αMeF]LDSK([AEEA-AEEA-γGlu-C18 diacid])RARDFVQWLLE[Aib]G-OH
modifications: N-terminus assumed
SMILES: CC(C)C[C@H](NC(=O)[C@H](Cc1c[nH]c2ccccc12)NC(=O)[C@H](CCC(N)=O)NC(=O)[C@@H](NC(=O)[C@H](Cc1ccccc1)NC(=O)[C@H](CC(=O)O)NC(=O)[C@H](CCCNC(=N)N)NC(=O)[C@H](C)NC(=O)[C@H](CCCNC(=N)N)NC(=O)[C@H](CCCCNC(=O)COCCOCCNC(=O)COCCOCCNC(=O)CC[C@H](NC(=O)CCCCCCCCCCCCCCCCC(=O)O)C(=O)O)NC(=O)[C@H](CO)NC(=O)[C@H](CC(=O)O)NC(=O)[C@H](CC(C)C)NC(=O)[C@](C)(Cc1ccccc1)NC(=O)[C@H](CCCCN)NC(=O)[C@H](CO)NC(=O)[C@@H](NC(=O)[C@H](CC(=O)O)NC(=O)[C@H](CO)NC(=O)[C@@H](NC(=O)[C@H](Cc1ccccc1)NC(=O)[C@@H](NC(=O)CNC(=O)[C@H](CCC(N)=O)NC(=O)C(C)(C)NC(=O)[C@@H](N)Cc1c[nH]cn1)[C@@H](C)O)[C@@H](C)O)C(C)C)C(C)C)C(=O)N[C@@H](CC(C)C)C(=O)N[C@@H](CCC(=O)O)C(=O)NC(C)(C)C(=O)NCC(=O)O

Columns and labels:
[1] = target: human GLP-1 receptor (hGLP-1R) (human, UniProt P43220 24-463); experiment: cell-based or functional assay
[2] = target: human glucagon receptor (hGCGR) (human, UniProt P47871 26-477); experiment: cell-based or functional assay
human glucagon receptor (hGCGR), sequence (P47871 26-477): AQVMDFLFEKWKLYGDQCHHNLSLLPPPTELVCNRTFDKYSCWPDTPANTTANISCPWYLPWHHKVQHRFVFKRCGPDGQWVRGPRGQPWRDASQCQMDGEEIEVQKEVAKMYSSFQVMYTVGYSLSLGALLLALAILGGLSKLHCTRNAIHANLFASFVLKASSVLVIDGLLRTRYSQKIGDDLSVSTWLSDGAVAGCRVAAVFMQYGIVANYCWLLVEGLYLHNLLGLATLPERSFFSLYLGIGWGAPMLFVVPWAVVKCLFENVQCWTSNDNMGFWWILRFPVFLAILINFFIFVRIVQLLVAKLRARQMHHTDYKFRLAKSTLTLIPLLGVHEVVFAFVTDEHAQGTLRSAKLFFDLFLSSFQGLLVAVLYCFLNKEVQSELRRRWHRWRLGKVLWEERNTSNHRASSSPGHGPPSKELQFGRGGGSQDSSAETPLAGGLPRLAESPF

Binder	hGLP-1R EC50 (pM) [1] [pM]	hGluc-R EC50 (pM) [2] [pM]
B1	264	392
B2	59.4	108
B3	19.1	32.6
